Test: Radiation dosimetry and clearance kinetics from biodistribution data
Assay type: in vivo, BALB/c mice
Conditions: for Total absorbed dose/injected activity: sum of five α-emitting radionuclides

Question: Which “Decay rate constant, λeff” value (^221Fr, Stomach) does the source give for C[C@@H](O)[C@H](NC(=O)[C@@H]1CSSC[C@H](NC(=O)[C@@H](Cc2ccccc2)NC(=O)CN2CCN(CC(=O)O)CCN(CC(=O)O)CCN(CC(=O)O)CC2)C(=O)N[C@@H](Cc2ccc(O)cc2)C(=O)N[C@H](Cc2c[nH]c3ccccc23)C(=O)N[C@@H](CCCCN)C(=O)N[C@@H]([C@@H](C)O)C(=O)N1)C(=O)O [[^225Ac]Ac-DOTA-TATE, metal not drawn] here?
Answer: 0.0170 h⁻¹

Question: And the “Initial activity/organ, A○” value (^221Fr, Stomach)?
Answer: 0.0852 kBq

Question: And the “lower effective half-life of kidneys compared to liver” value (^225Ac)?
Answer: ~5 fold

Question: And the Absorbed dose/injected activity (^225Ac, Blood)?
Answer: 0.0000 Gy/kBq

Question: What about the “Accumulated activity/organ, A~” value (^225Ac, Blood) of the same compound?
Answer: 0.0080 kBq×h

Question: And the “Decay rate constant, λeff” value (^225Ac, Blood)?
Answer: 0.0206 h⁻¹

Question: And the “Initial activity/organ, A○” value (^225Ac, Blood)?
Answer: 0.0003 kBq

Question: And the Absorbed dose/injected activity (^225Ac, Bone)?
Answer: 0.0004 Gy/kBq

Question: What about the “Accumulated activity/organ, A~” value (^225Ac, Bone) of the same compound?
Answer: 1.4274 kBq×h

Question: What about the “Decay rate constant, λeff” value (^225Ac, Bone) of the same compound?
Answer: 0.0030 h⁻¹

Question: What about the “Initial activity/organ, A○” value (^225Ac, Bone) of the same compound?
Answer: 0.0131 kBq

Question: What about the Absorbed dose/injected activity (^225Ac, Brain) of the same compound?
Answer: 0.0001 Gy/kBq

Question: And the “Accumulated activity/organ, A~” value (^225Ac, Brain)?
Answer: 0.8190 kBq×h

Question: What about the “Decay rate constant, λeff” value (^225Ac, Brain) of the same compound?
Answer: -0.0103 h⁻¹

Question: What about the “Initial activity/organ, A○” value (^225Ac, Brain) of the same compound?
Answer: 0.0019 kBq

Question: What about the Absorbed dose/injected activity (^225Ac, Heart) of the same compound?
Answer: 0.0001 Gy/kBq

Question: What about the “Accumulated activity/organ, A~” value (^225Ac, Heart) of the same compound?
Answer: 0.4871 kBq×h

Question: And the “Decay rate constant, λeff” value (^225Ac, Heart)?
Answer: -0.0004 h⁻¹

Question: What about the “Initial activity/organ, A○” value (^225Ac, Heart) of the same compound?
Answer: 0.0033 kBq

Question: And the Absorbed dose/injected activity (^225Ac, Intestine)?
Answer: 0.0001 Gy/kBq

Question: And the “Accumulated activity/organ, A~” value (^225Ac, Intestine)?
Answer: 4.4589 kBq×h

Question: And the “Decay rate constant, λeff” value (^225Ac, Intestine)?
Answer: 0.0200 h⁻¹

Question: And the “Initial activity/organ, A○” value (^225Ac, Intestine)?
Answer: 0.1527 kBq

Question: What about the Absorbed dose/injected activity (^225Ac, Kidney) of the same compound?
Answer: 0.0012 Gy/kBq

Question: What about the “Accumulated activity/organ, A~” value (^225Ac, Kidney) of the same compound?
Answer: 8.2462 kBq×h

Question: And the “Decay rate constant, λeff” value (^225Ac, Kidney)?
Answer: 0.0250 h⁻¹

Question: And the “Initial activity/organ, A○” value (^225Ac, Kidney)?
Answer: 0.3862 kBq

Question: What about the Absorbed dose/injected activity (^225Ac, Liver) of the same compound?
Answer: 0.0012 Gy/kBq

Question: And the “Accumulated activity/organ, A~” value (^225Ac, Liver)?
Answer: 29.4458 kBq×h

Question: What about the “Decay rate constant, λeff” value (^225Ac, Liver) of the same compound?
Answer: -0.0053 h⁻¹

Question: What about the “Initial activity/organ, A○” value (^225Ac, Liver) of the same compound?
Answer: 0.1200 kBq

Question: And the Absorbed dose/injected activity (^225Ac, Lung)?
Answer: 0.0001 Gy/kBq

Question: What about the “Accumulated activity/organ, A~” value (^225Ac, Lung) of the same compound?
Answer: 1.0829 kBq×h

Question: And the “Decay rate constant, λeff” value (^225Ac, Lung)?
Answer: 0.0130 h⁻¹

Question: What about the “Initial activity/organ, A○” value (^225Ac, Lung) of the same compound?
Answer: 0.0227 kBq

Question: What about the Absorbed dose/injected activity (^225Ac, Muscle) of the same compound?
Answer: 0.0001 Gy/kBq

Question: And the “Accumulated activity/organ, A~” value (^225Ac, Muscle)?
Answer: 0.5613 kBq×h

Question: What about the “Decay rate constant, λeff” value (^225Ac, Muscle) of the same compound?
Answer: -0.0049 h⁻¹

Question: What about the “Initial activity/organ, A○” value (^225Ac, Muscle) of the same compound?
Answer: 0.0024 kBq

Question: What about the Absorbed dose/injected activity (^225Ac, Pancreas) of the same compound?
Answer: 0.0003 Gy/kBq

Question: What about the “Accumulated activity/organ, A~” value (^225Ac, Pancreas) of the same compound?
Answer: 1.4271 kBq×h

Question: And the “Decay rate constant, λeff” value (^225Ac, Pancreas)?
Answer: 0.0060 h⁻¹

Question: What about the “Initial activity/organ, A○” value (^225Ac, Pancreas) of the same compound?
Answer: 0.0171 kBq

Question: And the Absorbed dose/injected activity (^225Ac, Salivary)?
Answer: 0.0002 Gy/kBq

Question: And the “Accumulated activity/organ, A~” value (^225Ac, Salivary)?
Answer: 0.8906 kBq×h

Question: What about the “Decay rate constant, λeff” value (^225Ac, Salivary) of the same compound?
Answer: -0.0077 h⁻¹

Question: And the “Initial activity/organ, A○” value (^225Ac, Salivary)?
Answer: 0.0028 kBq

Question: What about the Absorbed dose/injected activity (^225Ac, Skin) of the same compound?
Answer: 0.0001 Gy/kBq

Question: What about the “Accumulated activity/organ, A~” value (^225Ac, Skin) of the same compound?
Answer: 0.8656 kBq×h

Question: What about the “Decay rate constant, λeff” value (^225Ac, Skin) of the same compound?
Answer: -0.0092 h⁻¹

Question: And the “Initial activity/organ, A○” value (^225Ac, Skin)?
Answer: 0.0023 kBq

Question: What about the Absorbed dose/injected activity (^225Ac, Spleen) of the same compound?
Answer: 0.0001 Gy/kBq

Question: And the “Accumulated activity/organ, A~” value (^225Ac, Spleen)?
Answer: 0.3228 kBq×h

Question: What about the “Decay rate constant, λeff” value (^225Ac, Spleen) of the same compound?
Answer: 0.0062 h⁻¹

Question: And the “Initial activity/organ, A○” value (^225Ac, Spleen)?
Answer: 0.0039 kBq

Question: And the Absorbed dose/injected activity (^225Ac, Stomach)?
Answer: 0.0004 Gy/kBq

Question: What about the “Accumulated activity/organ, A~” value (^225Ac, Stomach) of the same compound?
Answer: 2.6801 kBq×h

Question: And the “Decay rate constant, λeff” value (^225Ac, Stomach)?
Answer: 0.0190 h⁻¹

Question: And the “Initial activity/organ, A○” value (^225Ac, Stomach)?
Answer: 0.0859 kBq

Question: And the “Total absorbed dose/injected activity” value (Blood)?
Answer: 0.0002 Gy/kBq

Question: What about the “Total absorbed dose/injected activity” value (Bone) of the same compound?
Answer: 0.0014 Gy/kBq

Question: What about the “Total absorbed dose/injected activity” value (Brain) of the same compound?
Answer: 0.0004 Gy/kBq

Question: And the “Total absorbed dose/injected activity” value (Heart)?
Answer: 0.0004 Gy/kBq

Question: What about the “Total absorbed dose/injected activity” value (Intestine) of the same compound?
Answer: 0.0007 Gy/kBq

Question: What about the “Total absorbed dose/injected activity” value (Kidney) of the same compound?
Answer: 0.0068 Gy/kBq

Question: And the “Total absorbed dose/injected activity” value (Liver)?
Answer: 0.0059 Gy/kBq

Question: And the “Total absorbed dose/injected activity” value (Lung)?
Answer: 0.0009 Gy/kBq

Question: And the “Total absorbed dose/injected activity” value (Muscle)?
Answer: 0.0003 Gy/kBq

Question: And the “Total absorbed dose/injected activity” value (Pancreas)?
Answer: 0.0011 Gy/kBq

Question: And the “Total absorbed dose/injected activity” value (Salivary)?
Answer: 0.0008 Gy/kBq

Question: And the “Total absorbed dose/injected activity” value (Skin)?
Answer: 0.0004 Gy/kBq

Question: And the “Total absorbed dose/injected activity” value (Spleen)?
Answer: 0.0016 Gy/kBq

Question: And the “Total absorbed dose/injected activity” value (Stomach)?
Answer: 0.0017 Gy/kBq
